Assay results: US8927230B2, “C-terminal modification of polypeptides” (EUCODIS Bioscience GmbH, priority 2004, dated 2015)

Biological target: T1, N^α-benzoylated peptides of SEQ ID NOs: 2-18 (Rattus norvegicus, UniProt P00763, D194K/E154H/K66E/N146H)
T1 construct: made in house; host or cells: E. coli or yeast (general procedure; the host actually used is not fixed)
T1 sequence (P00763 24-246 K66E/N146H/E154H/D194K): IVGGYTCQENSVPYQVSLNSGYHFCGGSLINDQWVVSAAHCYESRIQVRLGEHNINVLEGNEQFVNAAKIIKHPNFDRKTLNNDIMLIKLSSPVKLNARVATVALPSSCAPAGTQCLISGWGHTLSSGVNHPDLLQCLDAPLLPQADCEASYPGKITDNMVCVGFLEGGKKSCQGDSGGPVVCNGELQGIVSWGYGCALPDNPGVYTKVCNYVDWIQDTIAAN
Assay: Influence of the recognition sequence on the rate of reaction catalyzed by the trypsin variant (HPLC, peptide consumption)
Format: biochemical
Conditions: 1 mM peptide, 20 μM trypsin variant, 100 μM ZnCl2, 0.1 M Pipes/Tris-buffer pH 8.0, 30° C.
Description: Variant trypsin according to the present invention has been tested for catalytic activity upon peptide substrates with different peptide sequences at or close to the cleavage site. The initial rate (v) of peptide consumption is given in nM/min
The N^α-benzoylated peptides of SEQ ID NOs: 2-18 have been synthesized by conventional solid-phase peptide synthesis using Fmoc-chemistry and a preloaded Wang-resin. The respective amino acid building blocks are commercially available and were purchased from various suppliers.
1 ml reaction volume containing 1 mM N^α-benzoylated peptide dissolved in 0.1 M Pipes/Tris-buffer pH 8.0; 20 μM trypsin variant Tn K60E, E151H, N143H, D189K; 100 μM ZnCl2 was stirred at 30° C. After defined time intervals, the reactions were terminated by adding of 1% trifluoroacetic acid in methanol/water (1:1, v/v). The quenched reaction mixtures were analyzed by analytical HPLC. The identity of the final products was verified by mass spectroscopy.

B1: Tn K60E, E151H, N143H, D189K: mutated anionic rat trypsin II, without signal sequence and pro-sequence (SEQ ID NO: 1), with K60E, N143H, E151H, D189K (protein)
chain: T1 sequence (P00763 24-246 K66E/N146H/E154H/D194K)
cleavage site preference (substrate specificity from initial rates of peptide consumption, FIG. 4): strong preference for a cleavage site comprising L, F or Y in position P1, R or K in position P1′ and His in position P2′
